In patent publication US20210130420A1, “RECOMBINANT BINDING PROTEINS TARGETING HER2 AND SERUM ALBUMIN, AND THEIR USES” (Molecular Partners AG, priority 2016, published 2021):

Columns and labels:
human serum albumin = human serum albumin (Homo sapiens, UniProt P02768); experiment: Size exclusion chromatography coupled to static light scattering with human serum albumin; format: binding; conditions: 30 μM Protein #21, 60 μM human serum albumin, 1:2 mixture in PBS
Experimental: Protein #21 was expressed and purified as described in Example 1. Size exclusion chromatography coupled to static light scattering (Superdex 200 10/300GL (GE Healthcare), Agilent 1200 (Life Technologies), Wyatt Optilab Trex (RI) and MiniDawnTreos (MALS)) was performed using 30 μM Protein #21, 60 μM human serum albumin (CSL Behring 20% solution was used to purify the monomeric fraction of human serum albumin by size exclusion chromatography on a Superdex 200 26/60 column (GE Healthcare)), or a 1:2 mixture of the two, in PBS.

[1] = Pharmacokinetic comparison of Protein #21 with Protein #33; format: in vivo; conditions: variant lacking the C-terminal serum albumin binding domain
Source text: Many options are known in the art for pharmacokinetic engineering including PEGylation, polypeptide extension, Fc-fusion, serum albumin-fusion, and binding to serum albumin, amongst others (Kontermann, R (Ed.) “Therapeutic proteins: strategies to modulate their plasma half-lives”, Wiley-VCH Verlag GmbH, 2012, ISBN 978-3-527-32849-9). Starting from e.g. the combination of designed ankyrin repeat domains with binding specificity for HER2 comprising SEQ ID NOs: 16 and 17, there are hundreds of potential drug candidate variants (choice of pharmacokinetic modification engineering, choice of polypeptide linker (e.g. SEQ ID NOs: 2 to 9 amongst many others), amongst other aspects). […] Results of the effect of the choice of the polypeptide linker are shown e.g. in Example 10.
For the studies in this example Protein #21-His, Protein #24-His, Protein #28-His, Protein #29-His, and Protein #30-His were prepared according to Example 1. Protein #28-His was additionally PEGylated using a 40 kDa PEG moiety (NOF Sunbright GL2-400MA) by maleimid coupling of the PEG-moiety onto the free C-terminal cysteine of Protein #28-His, followed by purification to homogeneity using standard purification methods, procedures well known to the person skilled in the art. Pharmacokinetic analyses in mouse or cynomolgus monkey were performed as described in Examples 8 and 9.

[2] = Storage stability in PBS analysed by SDS-PAGE; format: physicochemical; conditions: SDS-PAGE after 1 month at 40° C. in glass vials in PBS at 10 mg/ml
Experimental: “Improved storage stability” in the context of the present invention means the reduction of the amounts of a degradation band, preferably the reduction of the amount of degradation products, as detected by a Coomassie-stained SDS-PAGE occurring after storage at 40° C. for 1 month at 10 mg/ml in PBS, by at least 5%, 10%, 15%, 20%, 25%, 30%, 35%, 40%, 45%, 50%, or 50%. Methods to assess storage stability by SDS-PAGE are well known to the person skilled in the art. Examples of designed ankyrin repeat domains and recombinant binding proteins with improved storage stability properties are given in Examples 2 and 3.
Protein #13-His, Protein #14-His and Protein #15-His were prepared as described in Example 1, and samples were concentrated to 10 mg/ml in PBS. Protein #14-His and Protein #15-His where then stored for 1 month at −80° C. or at 40° C. in glass vials, followed by analysis on SDS 15% PAGE. […] These findings illustrate that Protein #14-His has improved storage stability compared to Proteins #13-His and Protein #15-His.
A storage stability improvement is also observed, when testing the storage stability of Protein #21 and Protein #22 (recombinant binding proteins consisting of the amino acid sequences corresponding to SEQ ID NOs: 21 and 22, respectively). Protein #21 and Protein #22 are prepared as described in Example 1, samples are concentrated to 10 mg/ml in PBS and stored for 1 month at −80° C. in or at 40° C. in glass vials, followed by analysis on standard size-exclusion chromatography.

[3] = test system: SKBR-3, SKOV-3, NCI-N87, ZR-75-30, HCC1419, or MDA-MB175; experiment: Induction of apoptosis in further cell lines; format: cell-based
Foxo3a protein [4] = experiment: Cellular levels of Foxo3a protein in NCI-N87 cells; format: cell-based; conditions: compared to an exposure to PBS only
Source text: (§1) Protein #21 was expressed and purified as described in Example 1. […] Cells were then subjected to a phospho-proteome mass-spectrometry analysis as described by Britton, D., et al. (Britton, D., Zen, Y., Quaglia, A., Selzer, S., Mitra, VI., Lössner, C., Jung, S., Bohm, G., Schmid, P., Prefot, P., Hoehle, C., Koncarevic, S., Gee, J., Nicholson, R., Ward, M., Castellano, L., Stebbing, J., Zucht, H. D., Sarker, D., Heaton, N., and Pike, I., 2014. PLOS One 9 (3), e90948).
(§2) It is known to the practitioner in the art, that Akt1 phosphorylates Foxo3a, resulting in the degradation of Foxo3a and promotion of cell survival. Inhibition of Act phosphorylation leads to stabilization of Foxo3a and thus increase in Foxo3a levels. At increased levels Foxo3a can translocate to the nucleus and induce apoptosis.

Foxo3a protein [5] = experiment: Cellular levels of Foxo3a protein in BT474 cells; format: cell-based, human; conditions: compared to an exposure to PBS only
Source text: as §1, §2

[6] = Thermal stability by circular dichroism; format: physicochemical; conditions: 0.4 μM in PBS
Experimental: Protein #21 was expressed and purified as described in Example 1. Thermal stability was evaluated using circular dichroism using a Jasco J-815 CD spectrometer in a nitrogen atmosphere (3 L/min). Protein #21 at 0.4 μM in PBS in 117.100F-QS cuvettes (Hellma, d=1 cm) with in-solution temperature control sensors were measured, heating from 20° C. to 95° C. (below 45° C.: +3° C./min; above 45° C.: +1° C./min recording the signal at 222 nm, a 1 min delay at 95° C. and a subsequent cooling phase (inverted program compared to heating phase). The CD signal was normalized to mean residual ellipticity (MRE) with the unit deg cm2 dmol-1. Additionally, the far-UV CD spectrum was recorded.

[7] = molecular target: human HER2 and human serum albumin (Homo sapiens, UniProt P02768+P04626); experiment: Surface plasmon resonance simultaneous binding
AKT = experiment: Phospho-site specific ELISA, BT474 cells; format: cell-based, human; conditions: 100 nM, 18 hours

B1: Protein #21: SEQ ID NO: 21; HER2 binding domains (SEQ ID NOs: 16, 17) flanked by two serum albumin binding domains (SEQ ID NO: 14), SEQ ID NO: 9 linkers (protein)
chain: GSDLGKKLLEAARAGQDDEVRELLKAGADVNAKDYFSHTPLHLAARNGHLKIVEVLLKAGADVNAKDFAGKTPLHLAANEGHLEIVEVLLKAGADVNAQDIFGKTPADIAADAGHEDIAEVLQKAAGSPTPTPTTPTPTPTTPTPTPTGSDLGIKLLFAAAKGQDDEVRELLKAGADVNAKDFQGVTPLHIAAQSGHLEIVEVLLKAGADVNAKDVTGDTPLHLAAQHGHLEIVEVLLKAGADVNAQDERGWTPADLAADWGHEDIAEVLQKAAGSPTPTPTTPTPTPTTPTPTPTGSDLGKKLLEAARAGQDDEVRELLKAGADVNAKDEYGLTPLYLATAHGHLEIVEVLLKAGADVNAVDAIGFTPLHLAAFIGHLEIAEVLLKAGADVNAQDKFGKTPADIAAGAGNEDIAEVLQKAAGSPTPTPTTPTPTPTTPTPTPTGSDLGKKLLEAARAGQDDEVRELLKAGADVNAKDYFSHTPLHLAARNGHLKIVEVLLKAGADVNAKDFAGKTPLHLAANEGHLEIVEVLLKAGADVNAQDIFGKTPADIAADAGHEDIAEVLQKAA
modifications: Protein comprising four designed ankyrin repeat domains
Human serum albumin
  simultaneous binding of two serum albumin molecules: can bind two serum albumin molecules simultaneously
[1]
  pharmacokinetic properties compared to Protein #33: markedly improved pharmacokinetic properties, in particular a longer terminal half-life
[2]
  amounts of degradation products compared to Protein #22: lower amounts of degradation products
[3]
  potency in inducing apoptosis in further cell lines: high potency in inducing apoptosis
Foxo3a protein [4]
  increase of cellular levels of Foxo3a protein: 2.8 fold
Foxo3a protein [5]
  increase of cellular levels of Foxo3a protein: 1.88 fold
[6]
  temperature above which loss of signal at 222 nm is detected: above 78 °C
[7]
  simultaneous binding of human HER2 and human serum albumin: can bind human HER2 and human serum albumin simultaneously
AKT
  AKT S473 phosphorylation: 0.16 fold change to PBS
